According to the FLAb antibody collection (doi:10.7554/elife.23156):

B1: scFv; the commonest letter at each place (parent)
chain 1: EVKLDETGGGLVQPGRPMKLSCVASGFTFSDYWMNWVRQSPEKGLEWVAQIRNKPYNYETYYSDSVKGRFTISRDDSKSSVYLQMNNLRVEDMGIYYCTGSYYGMDYWGQGTSVTVS
chain 2: DVVMTQTPLSLPVSLGDQASISCRSSQSLVHSNGNTYLRWYLQKPGQSPKVLIYKVSNRFSGVPDRFSGSGSGTDFTLKISRVEAEDLGVYFCSQSTHVPWTFGGGTKLEIK

Assays:
[1] = variants of: B1; experiment: Kd (Tite-Seq); conditions: with fluorescein; format: scFv 4-4-20, heavy + light
[2] = variants of: B1; experiment: yeast surface expression (ratio to wild type); higher = more expressed; conditions: format: scFv 4-4-20, heavy + light

| Kd [1] | Variant | yeast surface expression [2] |
| --- | --- | --- |
| ≥ 10 µM | chain 1 S101N Y103C | 0.438 |
| ≥ 10 µM | chain 1 Y103L D106H G109F | 0.0981 |
| ≥ 10 µM | chain 1 Y32E W33T | 0.889 |
| ≥ 10 µM | chain 1 S101D W108A | 0.443 |
| ≥ 10 µM | chain 1 Y32T V37A | 0.65 |
| ≥ 10 µM | chain 1 W33P M34H | 0.508 |
| ≥ 10 µM | chain 1 Y32K M34F W36H | 0.381 |
| ≥ 10 µM | chain 1 D31S M34C N35Y | 0.927 |
| 0.0113 µM | chain 1 T28C D31Q | 0.575 |
| 0.0562 µM | chain 1 M34F W36M | 0.872 |
| 0.0154 µM | chain 1 T28D W36F | 0.895 |
| ≥ 10 µM | chain 1 G100N G104F | 0.321 |
| ≥ 10 µM | chain 1 T28M V37G | 0.468 |
| ≥ 10 µM | chain 1 M34I W36Q | 0.283 |
| ≥ 10 µM | chain 1 Y103N G104T | 0.851 |
| ≥ 10 µM | chain 1 D106V W108N | 0.371 |
| ≥ 10 µM | chain 1 G104M G109L | 0.0989 |
| ≥ 10 µM | chain 1 Y103L G104Y | 0.604 |
| ≥ 10 µM | chain 1 Y32H N35E | 0.518 |
| 0.00317 µM | chain 1 S30H | 0.839 |
| 0.00638 µM | chain 1 S30L | 0.801 |
| 0.000964 µM | chain 1 S30R | 0.995 |
| ≥ 10 µM | chain 1 M105L G109C | 0.26 |

| Kd [1] | Variant | yeast surface expression [2] |
| --- | --- | --- |
| 0.00334 µM | chain 1 Y102C | 0.924 |
| ≥ 10 µM | chain 1 M34H N35P | 2.76 |
| ≥ 10 µM | chain 1 G100L G109R | 0.268 |
| ≥ 10 µM | chain 1 N35V W36M | 0.488 |
| ≥ 10 µM | chain 1 S101H Y107R | 0.581 |
| ≥ 10 µM | chain 1 M105N G109E | 0.266 |
| ≥ 10 µM | chain 1 T28C M34L W36M | 0.657 |
| ≥ 10 µM | chain 1 D106R Y107N | 0.359 |
| 0.0015 µM | chain 1 W36F | 0.954 |
| 0.0259 µM | chain 1 W36M | 0.721 |
| ≥ 10 µM | chain 1 W36Q | 0.308 |
| 0.195 µM | chain 1 M34E N35H | 0.4 |
| 5.96 µM | chain 1 W108S G109S | 0.37 |
| 0.00655 µM | chain 1 T28A D31L | 0.713 |
| 0.00142 µM | chain 1 Y32F V37C | 0.914 |
| ≥ 10 µM | chain 1 Y102H Y107F G109K | 0.242 |
| ≥ 10 µM | chain 1 S101N W108P | 0.506 |
| 3.74 µM | chain 1 Y103D W108H | 0.708 |
| ≥ 10 µM | chain 1 G100A S101L | 0.553 |
| 0.876 µM | chain 1 G100V Y103F | 0.679 |
| ≥ 10 µM | chain 1 S101L G104S | 0.326 |
| ≥ 10 µM | chain 1 G100V Y107M | 0.726 |
| 0.0851 µM | chain 1 F29A V37I | 0.834 |

| Kd [1] | Variant | yeast surface expression [2] |
| --- | --- | --- |
| ≥ 10 µM | chain 1 M105T G109V | 0.216 |
| 0.000784 µM | chain 1 Y107T | 0.965 |
| ≥ 10 µM | chain 1 S101T Y103Q | 1.11 |
| ≥ 10 µM | chain 1 S30Q N35K | 0.304 |
| ≥ 10 µM | chain 1 M105S G109C | 0.182 |
| ≥ 10 µM | chain 1 M105S G109H | 0.261 |
| 5.96 µM | chain 1 G100A Y103L W108G | 0.436 |
| ≥ 10 µM | chain 1 Y32I M34S | 0.65 |
| ≥ 10 µM | chain 1 S101K Y103T | 0.456 |
| ≥ 10 µM | chain 1 D31C W33C | 0.579 |
| 0.0245 µM | chain 1 G100A M105Q | 1.15 |
| ≥ 10 µM | chain 1 D106L G109S | 0.464 |
| ≥ 10 µM | chain 1 M34S N35H | 0.536 |
| 0.00135 µM | unchanged | 1 |
| 0.0221 µM | chain 1 F29W D31H | 0.626 |
| ≥ 10 µM | chain 1 G104K W108Q | 0.294 |
| ≥ 10 µM | chain 1 T28N W36K | 0.56 |
| 0.876 µM | chain 1 F29N S30Q | 1.02 |
| ≥ 10 µM | chain 1 Y103A G104Y G109T | 0.211 |
| ≥ 10 µM | chain 1 W33N V37N | 0.652 |
| ≥ 10 µM | chain 1 S30I Y32T | 0.909 |
| ≥ 10 µM | chain 1 S30D N35R | 0.195 |
| ≥ 10 µM | chain 1 G100Y | 0.606 |

| Kd [1] | Variant | yeast surface expression [2] |
| --- | --- | --- |
| ≥ 10 µM | chain 1 D31T W36C | 0.789 |
| ≥ 10 µM | chain 1 M105I D106Y | 0.4 |
| ≥ 10 µM | chain 1 S101G G104Y | 0.901 |
| 0.0692 µM | chain 1 D31T M34E | 0.635 |
| ≥ 10 µM | chain 1 D106Q Y107I | 0.712 |
| 0.0767 µM | chain 1 T28S D31C | 0.771 |
| ≥ 10 µM | chain 1 F29R D31G | 0.755 |
| ≥ 10 µM | chain 1 S101Q M105Y | 0.795 |
| ≥ 10 µM | chain 1 Y103L D106I | 0.764 |
| ≥ 10 µM | chain 1 S101F G104Q | 0.241 |
| ≥ 10 µM | chain 1 M34W N35C | 0.721 |
| ≥ 10 µM | chain 1 F29R V37N | 0.445 |
| ≥ 10 µM | chain 1 F29R V37P | 0.289 |
| 2.88 µM | chain 1 M105W W108K | 0.363 |
| ≥ 10 µM | chain 1 W36D V37H | 0.21 |
| 0.00209 µM | chain 1 W108A | 0.588 |
| 0.00468 µM | chain 1 W108H | 0.333 |
| ≤ 0.000316 µM | chain 1 W108F | 0.644 |
| ≥ 10 µM | chain 1 N35E V37Q | 0.427 |
| ≥ 10 µM | chain 1 Y32W W36A | 0.204 |
| ≥ 10 µM | chain 1 Y32C M34F | 0.872 |
| ≥ 10 µM | chain 1 G104Q Y107V | 0.941 |
| ≥ 10 µM | chain 1 Y32D M34Y | 0.756 |

| Kd [1] | Variant | yeast surface expression [2] |
| --- | --- | --- |
| ≥ 10 µM | chain 1 G100I Y107E | 0.689 |
| 0.000939 µM | chain 1 S30P V37S | 0.74 |
| 0.000939 µM | chain 1 T28P V37S | 0.884 |
| 0.0162 µM | chain 1 T28R N35G | 1.03 |
| ≥ 10 µM | chain 1 F29L W33A | 0.763 |
| ≥ 10 µM | chain 1 G100T G104V D106E | 0.398 |
| ≥ 10 µM | chain 1 F29C W36V | 0.635 |
| ≥ 10 µM | chain 1 M105I Y107S | 0.853 |
| ≥ 10 µM | chain 1 S101Q G104R | 0.384 |
| ≥ 10 µM | chain 1 Y32C V37Q | 0.692 |
| ≥ 10 µM | chain 1 G100M S101I G104T | 0.359 |
| ≥ 10 µM | chain 1 S101H G109V | 0.231 |
| ≥ 10 µM | chain 1 T28Y D31V | 0.509 |
| ≥ 10 µM | chain 1 W33V V37S | 0.535 |
| ≥ 10 µM | chain 1 Y102L G109M | 0.185 |
| 0.00493 µM | chain 1 F29I D31K | 0.958 |
| ≥ 10 µM | chain 1 D106H W108I | 0.67 |
| ≥ 10 µM | chain 1 Y32E N35G | 1 |
| 0.000804 µM | chain 1 T28P S30G | 1.25 |
| ≥ 10 µM | chain 1 S101D Y103A | 1.07 |
| ≥ 10 µM | chain 1 Y107F G109E | 0.259 |
| ≥ 10 µM | chain 1 Y107F G109N | 0.555 |
| ≥ 10 µM | chain 1 F29E Y32V | 0.811 |
